Source: patent US20150266963A1

Tests used:
[1] = biological target: T1, human CD70 expressed on the surface of cells (human) (UniProt P32970); assay: flow cytometry on SU-DHL-6 cells, 1 h at 4 °C, anti-hIgG1-Fc-FITC or anti-hIgG-Fc-PE [panel SU-DHL-6]
T1 sequence (looked up): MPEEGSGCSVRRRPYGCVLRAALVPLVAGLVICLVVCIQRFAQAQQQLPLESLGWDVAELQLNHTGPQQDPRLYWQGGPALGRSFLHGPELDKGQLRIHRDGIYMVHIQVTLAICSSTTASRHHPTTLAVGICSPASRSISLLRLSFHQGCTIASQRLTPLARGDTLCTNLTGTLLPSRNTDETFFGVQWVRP

[2] = biological target: T2, recombinant human CD70 (Flag-TNC-CD70) (human) (UniProt P32970); assay: blocking ELISA; human Flag-TNC-CD70; competitor CD27-Fc
T2 sequence (looked up): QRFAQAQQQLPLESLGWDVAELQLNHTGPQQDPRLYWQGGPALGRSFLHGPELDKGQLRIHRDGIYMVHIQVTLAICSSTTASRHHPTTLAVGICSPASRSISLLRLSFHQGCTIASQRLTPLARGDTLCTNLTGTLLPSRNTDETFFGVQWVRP

[3] = biological target: T2, recombinant human CD70 (Flag-TNC-CD70) (human); assay: blocking ELISA; Flag-TNC-CD70 captured by anti-FLAG M2; competitor CD27-Fc 6.5 nM
[4] = biological target: T1, human CD70 expressed on the surface of cells (human); assay: flow cytometry on U266 cells, goat anti human IgG1 FITC [panel U266]
[5] = biological target: T1, human CD70 expressed on the surface of cells (human); assay: flow cytometry on U266 cells, 1 h at 4 °C, anti-hIgG1-Fc-FITC or anti-hIgG-Fc-PE [panel U266]

EC50 (read off the curve) [1]: 2 µg/mL
IC50 [2]: 0.044 µg/mL
IC50 [3]: 5.5 µg/mL
EC50 (read off the curve) [4]: 0.1 µg/mL
EC50 (read off the curve) [5]: 0.1 µg/mL
Substance: MDX1411 (antibody)
